Data as given in US20110104140A1, “USE OF NON-CATALYTIC FORM OF HEPARANASE AND PEPTIDES THEREOF FOR REVERSING THE ANTI-COAGULANT EFFECTS OF HEPARINOIDS” (priority 2006, published 2011).
“Also recorded” adds a separate entry of the source.

Experiments:
[1] = test system: Factor Xa; experiment: Factor Xa activity in plasma with heparin / LMWH (anti-Xa activity); format: biochemical, human; conditions: for Reversal of Factor Xa inhibitory effect of heparin: peptide, dose dependent, complete at 1 mg/ml, FIG. 6; for Reversal of heparin anti-Xa activity: increasing doses of heparanase proenzyme, in the presence of AT
Method: Heparin inhibits the activity of activated coagulation factor X (Xa). […] Abbreviations: act. (activity), plas. (plasma).
(§1) Coagulation Assays • aPTT-Automatic determination of activated partial thromboplastin time (aPTT) of samples was performed in duplicates, by mixing pooled normal plasma with aPTT reagent (FSL actin, Dade Behring). After exactly 10 min, the clotting time was determined on Sysmex CA1500 analyzer. • Xa activity—Photometric determination of anti-Xa activity was performed to evaluate the activity of LMWH in human plasma on Sysmex CA1500 analyzer, using the LMWH Kit (Chromogenics). • PT—Prothrombin time (PT) was determined using the Innovin reagent (Dade Behring) on Sysmex CA1500 analyzer. • Protein C—Protein C activity was determined by the Berichrom Protein C kit, and ATIII was measured by the chromogenic Berichrom Antithrombin III kit (both from Dade Behring). • Platelet aggregation—Platelet aggregation was measured on normal donor platelets utilizing the Payton Aggregocorder type aggregometer (Payton Associates). • Protein S—Free Protein S was measured with the Liatest kit (Diagnostica Stago). All coagulation assays were subjected to external quality control program (NEQUAS, Sheffield, UK).
In recent years LMWH became widely used anti-coagulants due to their prominent anti-coagulant activity, and improved pharmacokinetics compared with un-fractionated heparin. However, there is still no existing anti-dot to inhibit these clinically highly abundant anti-coagulants, in the case of urgent clinical needs. Such needs may occur during extensive bleedings (e.g. brain) caused by LMWH overdose, or un-controlled bleedings in LMWH treated individuals due to other medical causes. Therefore, the effects of heparanase pro-enzyme on the anti-coagulant activities of heparinoids, was next tested by the inventors. […] Similar effects of heparanase were observed on plasma treated with unfractionated heparin (not shown).

[2] = molecular target: T1, heparanase (Homo sapiens, UniProt Q9Y251); conditions: previously shown, WO 2005/071070; cited from earlier work
T1 sequence (Q9Y251 158-543 limits assumed): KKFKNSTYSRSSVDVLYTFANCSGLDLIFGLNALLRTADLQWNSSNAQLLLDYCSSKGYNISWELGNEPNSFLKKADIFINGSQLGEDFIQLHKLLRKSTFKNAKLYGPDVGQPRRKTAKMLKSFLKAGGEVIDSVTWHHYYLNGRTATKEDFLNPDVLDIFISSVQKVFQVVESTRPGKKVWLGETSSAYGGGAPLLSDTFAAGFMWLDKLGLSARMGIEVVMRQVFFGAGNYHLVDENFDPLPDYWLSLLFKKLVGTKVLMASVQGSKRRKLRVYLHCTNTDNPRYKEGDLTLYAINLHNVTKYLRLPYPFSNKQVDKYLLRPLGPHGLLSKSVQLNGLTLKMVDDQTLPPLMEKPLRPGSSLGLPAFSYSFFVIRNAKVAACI

[3] = test system: extrinsic coagulation pathway; experiment: Prothrombin time (PT); format: biochemical; conditions: for Effect on PT response: not shown
Method: as §1
(§2) To examine the possible involvement of heparanase in the coagulation process, variety of coagulation tests including activated […] (aPTT, testing the intrinsic coagulation pathway), prothrombin time (PT, testing the extrinsic coagulation pathway), thrombin time (TT, testing thrombin mediated fibrin generation), as well as protein C and protein S (both coagulation inhibitors) were performed by the inventors.

[4] = test system: heparin anti-coagulant effects on the aPTT response; experiment: aPTT assay in normal plasma with heparin; format: biochemical
Method: In the aPTT assay, clot is generated within normal plasma by the intrinsic coagulation pathway. […] Abbreviations: cont. (control), N. coag. (No coagulation).
as §1
The extent of blood coagulation responses requires the balance by anticoagulant components in the microenvironment of the endothelium, represented by cell surface HSPG and associated coagulation inhibitors. Heparanase, which is released from platelets upon activation may function as a physiological procoagulant. […] Two coagulation assays are affected by heparinoids: activated partial thromboplastin time (aPTT) which measures the intrinsic coagulation pathway, and thrombin time (TT) which measures the thrombin-mediated conversion of fibrinogen to fibrin. As illustrated by FIG. 1, in both cases, heparin forms a ternary complex with the natural thrombin inhibitor antithrombin III (ATIII) and thrombin, resulting in thrombin inactivation. […]

[5] = test system: heparin anti-coagulant effects on thrombin activity; experiment: Thrombin time assay (TTA) in normal plasma with heparin; format: biochemical; conditions: FIG. 3
Description: In the thrombin time assay (TTA), clot is generated within normal plasma. […] Abbreviations: cont. (control), sec. (seconds), N. coag. (No coagulation).
The extent of blood coagulation responses requires the balance by anticoagulant components in the microenvironment of the endothelium, represented by cell surface HSPG and associated coagulation inhibitors. Heparanase, which is released from platelets upon activation may function as a physiological procoagulant. […] Two coagulation assays are affected by heparinoids: activated partial thromboplastin time (aPTT) which measures the intrinsic coagulation pathway, and thrombin time (TT) which measures the thrombin-mediated conversion of fibrinogen to fibrin. As illustrated by FIG. 1, in both cases, heparin forms a ternary complex with the natural thrombin inhibitor antithrombin III (ATIII) and thrombin, resulting in thrombin inactivation. […] The inventors therefore next examined the effect of heparanase on the heparin induced reduction of both, aPTT and TT responses.

[6] = test system: intrinsic coagulation pathway; experiment: Activated partial thromboplastin time (aPTT), direct effect; format: biochemical; conditions: Heparanase 10 μg/ml; normal range 25-34 sec
Method: as §1, with “UK). […]” for “UK).”

[7] = test system: thrombin mediated fibrin generation; experiment: Thrombin time (TT), direct effect; format: biochemical; conditions: Heparanase 10 μg/ml; normal range 14-21 sec
Description: Another test may be the Thrombin Time (TT) assay which reflects the time taken for a plasma sample to clot on addition of thrombin. The test is essentially a measure of fibrinogen to fibrin conversion and the factors affecting this terminal stage of the coagulation system.
as §2

[8] = molecular target: T2, Protein C (Homo sapiens, UniProt P04070); experiment: Protein C activity (Berichrom Protein C kit); format: biochemical; conditions: Heparanase 10 μg/ml; normal range 75-151%
T2 construct: from tissue; host or cells: normal plasma
Method: as §1

[9] = molecular target: T3, Protein S (Homo sapiens, UniProt P07225); experiment: Protein S activity (Liatest kit); format: biochemical; conditions: Heparanase 10 μg/ml; normal range 54-138%
T3 construct: from tissue; host or cells: normal plasma
T3 sequence (P07225 42-676): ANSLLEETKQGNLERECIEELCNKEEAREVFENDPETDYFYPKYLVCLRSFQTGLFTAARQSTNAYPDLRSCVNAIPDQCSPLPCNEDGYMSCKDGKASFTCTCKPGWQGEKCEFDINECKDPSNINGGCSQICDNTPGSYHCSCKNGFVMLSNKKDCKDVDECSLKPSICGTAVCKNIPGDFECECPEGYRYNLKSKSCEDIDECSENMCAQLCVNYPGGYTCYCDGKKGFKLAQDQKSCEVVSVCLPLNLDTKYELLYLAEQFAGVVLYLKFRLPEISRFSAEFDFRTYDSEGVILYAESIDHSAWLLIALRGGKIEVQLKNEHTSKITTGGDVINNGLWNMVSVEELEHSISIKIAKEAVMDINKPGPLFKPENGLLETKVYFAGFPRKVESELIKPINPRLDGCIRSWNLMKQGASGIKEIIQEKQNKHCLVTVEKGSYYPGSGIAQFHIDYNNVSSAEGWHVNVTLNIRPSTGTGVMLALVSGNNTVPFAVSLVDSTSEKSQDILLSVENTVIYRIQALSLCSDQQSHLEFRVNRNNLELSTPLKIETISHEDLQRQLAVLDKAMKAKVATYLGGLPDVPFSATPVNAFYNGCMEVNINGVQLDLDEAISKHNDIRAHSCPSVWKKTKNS
Method: as §1

[10] = molecular target: T4, Antithrombin III (Homo sapiens, UniProt P01008); experiment: Antithrombin III (chromogenic Berichrom Antithrombin III kit); format: biochemical; conditions: Heparanase 10 μg/ml; normal range 74-114%
T4 construct: from tissue; host or cells: normal plasma
Method: as §1

[11] = molecular target: T5, Factor Xa (Bos taurus, UniProt P00743); experiment: Factor Xa activity, direct effect; format: biochemical, human; conditions: Heparanase 10 μg/ml, no heparinoid, normal value 100%
T5 construct: purchased Chromogenics
Method: as §1

[12] = test system: normal donor platelets; experiment: Platelet aggregation stimulated by mediators (ADP, collagen, thrombin); format: cell-based; conditions: Heparanase 10 μg/ml
Method: as §1
The effects of heparanase on platelet aggregation stimulated by a variety of mediators (e.g. ADP, collagen, thrombin), was next tested.

[13] = test system: Factor Xa; experiment: Factor Xa activity ex vivo in plasma of LMWH-treated patients; format: biochemical, human; conditions: for Factor Xa activity in LMWH-treated patient plasma: plasma of twelve LMWH-treated patients, measured within 5 min, recombinant pro-heparanase, FIG. 5A
Method: FIG. 5A. Heparanase pro-enzyme was added to plasma derived from twelve independent LMWH-treated patients. Factor Xa activity was then measured, within 5 min. Each sample was measured in the absence (open bars) or presence (filled bars) of […] recombinant pro-heparanase. Each measurement was performed in duplicates (the average of each duplicate is shown, with differences between measurements <10%).
FIG. 5B. Summary of the effect of pro-heparanase on Factor Xa activity in the presence of heparin treated plasma, and the 12 LMWH-treated patient derived plasma samples (average±S.D.). Abbreviations: act. (activity), pat. (patient), pla. (plasma) cont. (control).
In order to assess possible clinical effects of heparanase pro-enzyme as an anti-dot to LMWH, heparanase pro-enzyme effect on Factor Xa activity ex vivo, was next tested in plasma derived from patients treated with LMWH, which were incubated with 10 •g/ml heparanase proenzyme. […] Thus, heparanase pro-enzyme reduced FXa inhibitory effects of LMWH in individual patient plasma samples, even at high levels of LMWH. Overall, the level of FXa inhibitory activity of LMWH in treated patients was reduced approximately by 50% (FIG. 5B).

T5 sequence (P00743 234-492 limits assumed): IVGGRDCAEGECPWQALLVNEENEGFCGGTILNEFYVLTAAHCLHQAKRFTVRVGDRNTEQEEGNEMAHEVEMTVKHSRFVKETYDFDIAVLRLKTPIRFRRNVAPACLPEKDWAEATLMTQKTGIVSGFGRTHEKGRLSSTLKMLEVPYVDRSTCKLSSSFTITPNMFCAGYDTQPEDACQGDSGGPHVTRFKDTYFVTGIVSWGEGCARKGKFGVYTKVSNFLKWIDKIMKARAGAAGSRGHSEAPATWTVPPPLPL
T5 sequence (P00743 41-180 limits assumed): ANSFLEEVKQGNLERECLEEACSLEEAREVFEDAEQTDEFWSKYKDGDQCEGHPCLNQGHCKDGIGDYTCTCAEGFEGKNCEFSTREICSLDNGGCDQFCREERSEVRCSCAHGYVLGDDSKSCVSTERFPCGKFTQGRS
T2 sequence (P04070 19-461 limits assumed): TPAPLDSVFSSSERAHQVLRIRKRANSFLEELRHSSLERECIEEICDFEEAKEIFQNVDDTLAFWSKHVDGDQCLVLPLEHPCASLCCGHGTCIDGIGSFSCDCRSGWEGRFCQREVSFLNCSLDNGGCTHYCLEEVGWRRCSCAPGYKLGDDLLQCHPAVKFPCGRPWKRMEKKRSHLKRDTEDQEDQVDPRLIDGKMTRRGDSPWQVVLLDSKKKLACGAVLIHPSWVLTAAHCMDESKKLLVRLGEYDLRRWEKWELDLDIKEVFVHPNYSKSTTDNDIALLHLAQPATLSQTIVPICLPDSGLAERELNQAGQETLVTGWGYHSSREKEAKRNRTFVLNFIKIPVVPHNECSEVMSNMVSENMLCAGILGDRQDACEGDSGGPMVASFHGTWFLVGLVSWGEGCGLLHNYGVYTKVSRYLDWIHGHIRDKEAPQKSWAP
T4 sequence (P01008 33-464): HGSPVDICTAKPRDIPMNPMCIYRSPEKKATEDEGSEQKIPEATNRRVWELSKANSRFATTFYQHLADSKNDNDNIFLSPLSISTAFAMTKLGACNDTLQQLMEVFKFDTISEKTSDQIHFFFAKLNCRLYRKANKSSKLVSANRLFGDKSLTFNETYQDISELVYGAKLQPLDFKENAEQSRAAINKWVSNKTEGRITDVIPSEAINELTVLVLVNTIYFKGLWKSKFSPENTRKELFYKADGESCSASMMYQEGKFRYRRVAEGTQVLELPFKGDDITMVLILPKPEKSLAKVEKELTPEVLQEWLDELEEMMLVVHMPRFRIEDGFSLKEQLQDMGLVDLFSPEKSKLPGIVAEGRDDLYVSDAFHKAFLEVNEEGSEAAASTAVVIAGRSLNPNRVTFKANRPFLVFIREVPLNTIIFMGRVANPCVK

For “Lys158-Asp171 heparin-binding peptide: fourteen amino acid peptide of residues Lys158-Asp171 of human heparanase, heparin-binding domain, SEQ ID NO: 1 (KKFKNSTYSRSSVD; listed as Homo sapiens)”, the “Reversal of Factor Xa inhibitory effect of LMWH” value ([1]; peptide 1 mg/ml, FIG. 7) was “completely reverse”, the “Reversal of Factor Xa inhibitory effect of UFH” value ([1]; peptide 1 mg/ml, FIG. 7) was “completely reverse” and the “Reversal of Factor Xa inhibitory effect of LMWH” value ([1]; peptide 1 mg/ml, FIG. 7, listed as Lys158-Asp171 heparin binding (HB) peptide) was “abolished”. For the same molecule, the “Reversal of Factor Xa inhibitory effect of heparin” value [1] was “completely reverse”, the “Reversal of Factor Xa inhibitory effect of heparin” value ([1]; listed as Lys158-Asp171 heparin binding (HB) peptide) was “abolished the FXa inhibitory effects of heparin” and the “Inhibition of heparanase enzymatic activity” value [2] was “inhibited heparanase enzymatic activity in a dose-responsive manner”.

With “Enoxaparin [low molecular weight heparin, reference compound]” the “Effect of heparinoid on Factor Xa activity” value ([1]; FIG. 4) was “reduces significantly”.

In the case of heparin [reference compound], the “Effect on PT response” value [3] is reported as “neither heparin nor heparanase pro-enzyme affected”, the “Inhibition of clot formation in aPTT assay” value ([4]; 1 u/ml heparin, normal plasma, FIG. 2) is reported as “complete coagulation inhibition” and the “Inhibition of clot formation in thrombin time assay” value ([5]; 0.5 u/ml heparin) is reported as “complete coagulation inhibition”.

B1: Heparanase pro-enzyme: latent 65 kDa human heparanase protein with Myc and His tags, purified from conditioned medium of CHO cells (protein, UniProt Q9Y251 36-543, looked up)
pro-form: QDVVDLDFFTQEPLHLVSPSFLSVTIDANLATDPRFLILLGSPKLRTLARGLSPAYLRFGGTKTDFLIFDPKKESTFEERSYWQSQVNQDICKYGSIPPDVEEKLRLEWPYQEQLLLREHYQKKFKNSTYSRSSVDVLYTFANCSGLDLIFGLNALLRTADLQWNSSNAQLLLDYCSSKGYNISWELGNEPNSFLKKADIFINGSQLGEDFIQLHKLLRKSTFKNAKLYGPDVGQPRRKTAKMLKSFLKAGGEVIDSVTWHHYYLNGRTATKEDFLNPDVLDIFISSVQKVFQVVESTRPGKKVWLGETSSAYGGGAPLLSDTFAAGFMWLDKLGLSARMGIEVVMRQVFFGAGNYHLVDENFDPLPDYWLSLLFKKLVGTKVLMASVQGSKRRKLRVYLHCTNTDNPRYKEGDLTLYAINLHNVTKYLRLPYPFSNKQVDKYLLRPLGPHGLLSKSVQLNGLTLKMVDDQTLPPLMEKPLRPGSSLGLPAFSYSFFVIRNAKVAACI
modifications: pro-form Myc and His tags
notes: latent 65 kDa human heparanase protein with Myc and His tags, purified from conditioned medium of CHO cells
In the case of B1, the “Prothrombin time (PT)” value ([3]; Heparanase 10 μg/ml, normal range 10.03-12.43 sec, single representative experiment) is reported as 10.6 s, the “Effect on PT response” value [3] is reported as “neither heparin nor heparanase pro-enzyme affected” and the “Activated partial pro-thrombin time (aPTT)” value [6] is reported as 29.4 s. For the same molecule, the “Thrombin time (TT)” value [7] was 17.3 s, the “Protein C-activity” value [8] was 111% and the “Protein S-activity” value [9] was 105%. For the same molecule, the “Antithrombin III” value [10] was 103%, the “Factor Xa-activity” value [11] was 102% and the “Factor Xa-activity” value ([11]; listed as heparanase proenzyme) was “had no effect”. For the same molecule, the Platelet aggregation [12] was “No effects of heparanase”, the “Pro-coagulant effects at low concentration” value ([4]; heparanase concentrations of less then 5 μg/ml, not shown, assay not specified) was “no pro-coagulant effects” and the “Reversal of heparin anti-coagulant effects on the aPTT response” value ([4]; normal plasma, neutral pH, FIG. 2) was “significantly reversed”. The “Reversal of heparin anti-coagulant effects on thrombin time” value [5] was “significantly prevented; also recorded: significantly reversed”, the “Reversal of heparin anti-Xa activity” value ([1]; FIG. 4) was “restoring Xa activity to normal levels” and the “Reversal of heparin anti-Xa activity” value ([1]; FIG. 4, listed as heparanase proenzyme) was “restoring FXa activity to the normal level”. The “Reduction of FXa inhibitory activity of LMWH in treated patients” value ([13]; 10 •g/ml heparanase proenzyme, overall of 12 patients, FIG. 5B) was roughly 50%, the “Factor Xa activity in LMWH-treated patient plasma” value [13] was “significant elevation” and the “Factor Xa activity in LMWH-treated patient plasma” value ([13]; listed as heparanase pro-enzyme) was “elevated significantly”.
